Test results reported in patent publication US5512545.

Molecular target: PDGF receptors (alpha and beta sub-units)

Mitogenesis ng/ml ([3H]thymidine uptake by Swiss 3T3 cells; activity read from the dose response curve of the PDGF-BB standard c-sis): 308 ng/mL
Substance: PDGF-B (naturally occurring, full length; product of Comparative Example A) (ligand)
